{"source": "the DeepSol protein solubility set", "data": [{"assay": "soluble on expression in E. coli; label from the status in PepcDB or PDB records", "values": [{"sequence": "MRDIGGSMSSASTSATIVKRSPPNDTSTSSGVSCDVSPNSMTSPSSGSDQNQNNNSLNKCKCCPYGYHIDLGFVSYAQNVSNGFVSRQGTPTNMTLRGNGADRHLMSPLLDNSIFSDSLDNLMSDFDDVLAPHKEVEKKKTVQDIRSRMQGGYNSDYTTYRRGPPEIPRRAHFEQAKPPPLSRPINLGFSGSRSNTPTQRFNAPNGTGNGYSTALAKTISEIRARNAESPFPDSRVGTPIDLGLHQQNNGHVTPSRFANNRYDDLPPTPTPTFRRAPSQGDLPRGFSTAPSTGPGDFASLRRGREFALPPEQEHHSRRFFSASPKLPRRGLQAGPSIDVESHFTYAQTQNGQKVLARTQSTSTSPPPQAPASAFEPVKPLSNGSPSPTHQVQKPIVTRSIAVSTGPLPAPKPCGECAGLRKELFLAVEKIPPPPPESCHVSTSTVLLEFADQSVGSEPIKHCHVALGTEPTSTREVGTVPVTVRSLHIDTQTDPAASTVDAACSPVLFETQEEAVKVTVAASSSAAAADCEECLKRQDVFTRNVGVGACSISDKICVSCDNQVVEADENEAPGFKTDTKDDQKQRDFEIAKANAVKKLLTNEQKSNFQRGTAVSKSARYDRKRSVDDLDYIVDKKNATSPATSSQEAPPTVPDASESPLTTKVVLKKEVFIEPPKQMLPDPIPARIPRPKISKWAVTSEEEAAETPDEQEEAQDRLTPLRSDMRQLGNRWNRNQVTTASNTTPHLPYSGATSQEDVSDSDAESDCSAHSDATFEVNDDVFDAAPFEVSDRLREALENFNSSILEPGSVAEETVEWSAKLVRHVWMTTAGNSSSRYENVDRFVAELGNLGPQILHMVVNFCDQNGNTALHYAVSHANFAVVSSILDSGECDLDAPNRAGYTAVMLAALSQLDDDMEKAVVHRLFQMGNVNAKASQHGQTALMLAVSHGKKTTTELLLACGANVNEQDQDGSTALMCAAEHGHKELVKMLLAENLVNASLTDVDNSTALSIALENDHREIGVMIYAYLNYGRLDISGPTSTI", "soluble on expression in E. coli": "not soluble"}, {"sequence": "MKPATFKEAVVLYEGMIVNQIKKLGIRKDYEEYYQCGLIGLWHAYERFDEKKGYFPAYAVVTVRGYILERLKKEFAVQERCVCVGEYEDIFHFEDVEIRVKDFMSVLDEKEKYIIFERFFVGKTMGEIALETEMTYYQVRWMYRQALEKMRDSVKG", "soluble on expression in E. coli": "not soluble"}, {"sequence": "MGSDKIHHHHHHMAAINAAVLQALRTMVRSEFQNALTKTESLYLKIASVVPSNTKSNTYGWLGSMPTMREWIGARVINSIKEHGYSITNRTFETTIGICRDDVEDEVIGTYKPMVQALAQEGEEFPDDLVFELLADGFSTLCYDGQNFFDTDHPVNEKHDGTGDNVSVANMALDAAYTGEPWFLLDTTRPLKPVIFQERRKLDLNTLFNPTDPAVWTNNEFQFGTDMRCEAGFGFWQMAFANKRALNADNLWDTIEKMKAFKRDGGKKLKIRPSLLVVPSSLEQAATKLLTRELIDENGTTVENELKGKVELLVVPQL", "soluble on expression in E. coli": "not soluble"}, {"sequence": "MLKIIPGATGYFNKTLNSNQFDNEDAIKDKLDNRGSIKGKLNNIYGKSIDYAALRHRDIIIAKIDLFIQRITHNLWHARKKMCFLEHHHHHH", "soluble on expression in E. coli": "not soluble"}, {"sequence": "MSLGEFVFKGLLQEKGWIENAVVKTNDFGVITSIKSDPERKDGCDYAIPGFQNAHSHAFQYAMAGLAELHSTSKTKNDFWSWRKIMYDLALNITPDQMEDIATMLYKEMLRHGYTHVAEFHYLHHDLSGEKYNNCSEMGERIIAAAKRAGIKLTLVPIFYQNGGFGRKAENEQRRFISSSFNDYKNLVEASISSSKNYEHSSVAYGIHSMRAVSAENIIKLSEQKENGAPFHIHVSEQLKEIEDSVAFLGLRPVDWLSENIDLNPDYHLVHATHLTQNEIESIAKSQANVVLCPSTEGNLGDGIFPLNEFLKHGGKWSIGTDSHVGLNPFEELRILDYGQRLISHNRNTFGNNISGDNGNIAISSALVNGRKAMGIEQTHYFEVGKSFDALIISDQHPLIQTVSLKNLTNTLVYSSDNSMYKGTIVNGDWKIKDGQHADDNIHADFIQTLNALKVREGHHHHHH", "soluble on expression in E. coli": "soluble"}, {"sequence": "IFNGRPAQKGTTPWIAMLSHLNGQPFCGGSLLGSSWIVTAAHCLHQSLDPKDPTLRDSDLLSPSDFKIILGKHWRLRSDENEQHLGVKHTTLHPQYDPNTFENDVALVELLESPVLNAFVMPICLPEGPQQEGAMVIVSGWGKQFLQRFPETLMEIEIPIVDHSTCQKAYAPLKKKVTRDMICAGEKEGGKDACAGDSGGPMVTLNRERGQWYLVGTVSWGDDCGKKDRYGVYSYIHHNKDWIQRVTGVRN", "soluble on expression in E. coli": "soluble"}, {"sequence": "MGSDKIHHHHHHMLFFINLTLKRGLTTLLENANATINPGQKVGLVGKNGCGKSSLFALLKNEMSAEGGEMSFPPNWALAWVNQETPSLDCRAIDYVIQGDREYSRLQQVLQQANTANDGNAIAVLHNQLDAIDAWTIEARAGELLHGLGFTQAELEQPVKAFSGGWRMRLNLAQALICRSDLLLLDEPTNHLDLDAVIWLERWLKQYPGTLILISHDRDFLDPIVGKILHIEQQKLNEYTGDYSSFEQQRATKLAQQNAMYRQQQLKIDHLQRYIDRFKAKATKAKQAQSRIKALERMEKIAPAYVDNPFHFEFREPLSLPNPLLMMENASVGYGEGEKSAVEILSKIKLNLVPGSRIGLLGKNGAGKSTLIKLLAGEIAPTGGTIQLAKGVQLGYFVQHQLDTLRADESALWHLQKIAPQQTEQQLRDYLGGFAFHGDKVNQPVASFSGGEKARLVLALIVWQRPNLLLLDEPTNHLDFRYASGVNGSLGGLSGLFGVGVARSPFIA", "soluble on expression in E. coli": "not soluble"}, {"sequence": "GMNLANIVQRGWEALGAGDFDTLVTDYVEKMIFIMPGQADVLKGRQAFRSALDNLGEILPPGFEITGLRQLEGENEIVSIVEWKSDKMIASQLSVLFKFEGDQIYEERWFVDTEQWKSVF", "soluble on expression in E. coli": "soluble"}, {"sequence": "MGSDKIHHHHHHAACQDEDHTVPTLPSGNDPEINDPVVEFYDWEKNRTELLTSTDMVLLYGGGHHRTPYTWDKERVSSYIRYVDTDNQSHWLFDSFLFLEIMDTGTGGANKMFAKGYNLESANQADWTKLIDYYFQSETGIGALDASVKEASAILGTPRQKRQIVISIPEPIVYQHPEQASSSTKYWGKIDNQTLDFSNSADRIKACKWYIDQVRAKFNEKNYQHVELAGFYWLAEKATDTRDILNAVAIYLNKLKYSFNWIPYYGADGYNQWKSLGFNYAYFQPNYFFNESVPDSRLEDACQKALTYDMHMELEFDDNALNSRGKAYRLKNYMSAFKKHGIWEKKRLAYYQGSASLLTLKKSGNAADTQLYHEFCNFVISRPIRSSH", "soluble on expression in E. coli": "not soluble"}, {"sequence": "MGSDKIHHHHHHMTTRQPKTEADVLAETANLILDKYFHNQKNICTYDKIELARMLGLAEDNKKSDYALFHFIKALRYVVLGNFNEAINSYEATLRIPNSHAGILSNYATTLIILGELEQAKEMLIKCLNETDDGVSNLEYFANIIELYLLSTLDETLLQHAGNMKDSTLDKYSNILKLKTDINKIDISIQDYQEFTGVLIKFIFDKTRQIYQPRFSIDNGLDRQLNIEAFLNINPEEASYLNTEFRNQYLDYIFDNERHDLLGKFVVFFRQNKNREDGTEKPKAFYLGTNRELEA", "soluble on expression in E. coli": "not soluble"}, {"sequence": "MSLNRDKPLKVMLVAAEASGDALGAGLAKALRARLGQGVTFVGIGGAKMAEQGVQSPFDIAQLSILGILESLKAYPRAMARLKDTVALAAREKPDVAVLIDSWGFNIRLAHALRRLDPTLPLVKYVAPQVWAYREGRAQALAKAVDLLLSIQPMDKAYFDAAGLQNVFVGNSALAKRFDHADPGRLRAAIGAAASQQILLVLPGSRPSEIERVMPAFEDAVRRLKVERPDLHIVVPAAYTVAEAVKARVAGWPFRAHVIEDEGLKDDAFLAGDVALACSGTVTTELALAGRPMVVGYKTGAVTYAIVKRLMKPRWITLFNIAAGKAVAPELIQHACEGEGLAREVALRLDDPDLRQRQTAEQYAALDRMGRGMPDPSEAAAEALLDFLSARGALGREGHHHHHH", "soluble on expression in E. coli": "not soluble"}, {"sequence": "MLLMMVVGLTAGVLAGCANPKDTTEEFLTAIQKGDIEKARTFVESDKEFNKLNEKTDDAEAKAMLSAITKNFKFEKLEEVSKKDDKAEVKVKITSADLSVAVTKAVGEVMPMAFASAFSEDKEQSEKAIEKTMTSTIIKNLTDKDAAMATREVTLNLKKDKDGDYKIVADDNLKEVLFANAKSLEKMFGGK", "soluble on expression in E. coli": "not soluble"}, {"sequence": "DEIIDGEDELEQDDPFEGEDIDPESIQEPEASYDSSSSPSGASNAEDDWQDEHRVRKFHINGVTVKAIAERVQYYDADGKLVTESFKDYTRKTMAKQFTSMDDFVKRWQDADKKQAIIDELAEEGIIWEALELEVGKDLDPFDMICHVVYDQPALTRKERADNVKKRNYFTKYGETAQQVLNNLLDKYADEGVQEIENIHVLKVKPFDEMGRPAEIVKKCFGGKEQYLEAISELEAEIY", "soluble on expression in E. coli": "not soluble"}, {"sequence": "MPDISIILLGNYAPDQVIHARLLFMRMEQVPGGHHLQILQFRFTIPFRQADFCSLDQSDVMCSETHCYYLMNLKVGAFFETAQNILMIRWLFS", "soluble on expression in E. coli": "not soluble"}, {"sequence": "MGSDKIHHHHHHMFSEGENVAKATIPLALESAEKNLETSNENEKARRSSSDTAISVRGISKCYQIYDAPRDRLKQFIIPRLRLARQQSRQYFREFWALKGISFEVRKGETVGIIGRNGSGKSTLLQIICGTLTPTAGSVETRGRIAALLELGSGFNPEFTGRENIYMNGAVLGLTREEIDDRFDSIVSFADIGQFIDQPVKTYSSGMSVRLAFAVQAQVDPDILIVDEALSVGDVRFQAKCFARLQQLKDNGTSVLLVTHSSEQIVTHCSSALLLNDGMQFEIGEPRHVVNRYLDLLFGKERRNPDSPQAQPGDIFQEDKGYAESAYQLSTDSDVFQTRNGYNTHEYRWGDGTASILDFYLAANGEPYPSAITVGQTVTLAVSIKFHSDMWRPILGITIKTKDGVTISGTNSEMADLLDLQALVKKGAILVGKCSFQCRLGPGDYFVSLGLATRENDEIIPHDRRYDSIHFIVEPHNKFHGLADLALDLSISHIVESNQI", "soluble on expression in E. coli": "not soluble"}, {"sequence": "MGPLVKEKYEEVEQIPLKKPHIVSLIGGFGYREPIFRKVLTTAALDSGINYTLISGPSLDPSKFKEIPKNVQILRFVGDTFPYIRSSDAVIAPGGHSTMMEALSFGTPILSFPDEGHSEQENNAAVIEEEGYGRMLSYSTPPEVILECIREVLEDKKYRDKVKRLQRLASELDGLEHHHHHH", "soluble on expression in E. coli": "soluble"}, {"sequence": "GPGSMWFNHRIRQRGLTPVLVNTLQKRLTCSLTRICLCDCKDASGREGVSSSTSGSVPSRMTSQNPPPRPPPTTPAATPGGVQYNTRRESEAVAIEQRRQQQQRATDAQRRGEEPLPEQSESEMARWWPEENQNWSGRMFASPLDKNKKKFDGMFVPEMKEVHGPDKPLELSYAGDNFFLNPDFHMADEVFDETRRFVPPPSFDPAVDEIDDEGFVDGQVMFDIQKAVDEDRRRLEAFGNPLLVEDQVDYLLQPQREGQENIQQRQEFNGFVHWGLLHGAHMIIEENQDYKKAHEFVNRYMRDIDLFQKWLEHPKVRAHIQKKFGVDMHAKFDKLMALVMAMYARSKIQVYEDDPAGALKSLTACMSFINEGADLKKERHRKAIGAVLAARGMVYCKLKSYDRAEDDLTRALRFVNQKRCATLFQLRAEAREALGRIEEARLDEERAAEIWENAEVIAPGMSGKPYKFVL", "soluble on expression in E. coli": "not soluble"}, {"sequence": "MAASWRLGCDPRLLRYLVGFPGRRSVGLVKGALGWSVSRGANWRWFHSTQWLRGDPIKILMPSLSPTMEEGNIVKWLKKEGEAVSAGDALCEIETDKAVVTLDASDDGILAKIVVEEGSKNIRLGSLIGLIVEEGEDWKHVEIPKDVGPPPPVSKPSEPRPSPEPQISIPVKKEHIPGTLRFRLSPAARNILEKHSLDASQGTATGPRGIFTKEDALKLVQLKQTGKITESRPTPAPTATPTAPSPLQATAGPSYPRPVIPPVSTPGQPNAVGTFTEIPASNIRRVIAKRLTESKSTVPHAYATADCDLGAVLKVRQDLVKDDIKVSVNDFIIKAAAVTLKQMPDVNVSWDGEGPKQLPFIDISVAVATDKGLLTPIIKDAAAKGIQEIADSVKALSKKARDGKLLPEEYQGGSFSISNLGMFGIDEFTAVINPPQACILAVGRFRPVLKLTEDEEGNAKLQQRQLITVTMSSDSRVVDDELATRFLKSFKANLENPIRLA", "soluble on expression in E. coli": "soluble"}]}]}
